Where “and” joins values, the source holds several entries; their conditions need not be identical. Equal values may be shown once. Each block holds one binder with its values, some of them ahead of it.
Tests used:
[1] = molecular target: T1, Cyno DR5Mfdel-K420N (cynomolgus monkey DR5 with deletion of amino acids 185-213 and death domain … (cynomolgus monkey)); experiment: flow cytometry on CHO-S cells transiently expressing cynomolgus monkey DR5; average of n = 4, SD in brackets
T1 construct: Transiently expressed on the membrane of CHO-S cells; Based on NCBI XP_005562887.1
T1 chain: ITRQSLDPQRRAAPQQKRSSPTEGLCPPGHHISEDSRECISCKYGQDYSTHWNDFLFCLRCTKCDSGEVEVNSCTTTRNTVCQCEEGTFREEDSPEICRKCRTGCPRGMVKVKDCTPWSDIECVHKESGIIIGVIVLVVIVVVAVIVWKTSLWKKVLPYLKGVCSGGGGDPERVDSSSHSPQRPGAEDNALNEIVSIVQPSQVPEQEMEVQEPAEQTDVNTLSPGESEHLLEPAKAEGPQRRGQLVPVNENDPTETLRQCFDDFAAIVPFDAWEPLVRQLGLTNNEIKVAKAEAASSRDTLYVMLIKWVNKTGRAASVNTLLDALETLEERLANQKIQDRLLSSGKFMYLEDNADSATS

DR5sh79-115ECDdelHis = molecular target: T2, DR5sh79-115ECDdelHis (human/mouse chimeric); experiment: ECLIA, coated DR5sh79-115ECDdelHis, detection with SULFO-TAG anti-human IgG
T2 construct: also called DR5sh79-115ECDdel-FcRbHisCtag

DR5sh139-166ECDdelHis = molecular target: T3, DR5sh139-166ECDdelHis (human/mouse chimeric); experiment: ECLIA, coated DR5sh139-166ECDdelHis, detection with SULFO-TAG anti-human IgG
T3 construct: also called DR5sh139-166ECDdel-FcRbHisCtag
T3 chain: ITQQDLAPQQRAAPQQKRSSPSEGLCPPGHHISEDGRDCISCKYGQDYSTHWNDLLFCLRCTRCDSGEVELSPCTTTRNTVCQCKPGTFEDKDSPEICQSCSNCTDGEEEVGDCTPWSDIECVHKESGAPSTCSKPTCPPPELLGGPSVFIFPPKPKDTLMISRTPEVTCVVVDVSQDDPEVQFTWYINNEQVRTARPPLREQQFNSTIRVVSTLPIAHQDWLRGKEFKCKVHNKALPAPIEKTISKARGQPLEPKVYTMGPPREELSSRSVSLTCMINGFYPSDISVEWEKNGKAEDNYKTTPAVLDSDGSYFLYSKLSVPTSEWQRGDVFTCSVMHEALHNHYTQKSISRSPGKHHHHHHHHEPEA

binding result (DR5sh79-115ECDdelHis): no binding
B1: IgG1-hDR5-05-E430G (antibody, V domains shown)
VH: QVQLVQSGAEVKKPGASVKVSCKASGFNIKDTHMHWVRQAPGQRLEWIGRIDPANGNTEYDQKFQGRVTITVDTSASTAYMELSSLRSEDTAVYYCARWGTNVYFAYWGQGTLVTVSS
VL: DIQLTQSPSSLSASVGDRVTITCSASSSVSYMYWYQQKPGKAPKPWIYRTSNLASGVPSRFSGSGSGTDFTLTISSLQPEDFATYYCQQYHSYPPTFGGGTKVEIKR
notes: also called second antibody; component of HexaBody-DR5/DR5
EC50 [1]: 0.17 µg/mL and 1.16 nM

binding result (DR5sh139-166ECDdelHis): no binding
B2: IgG1-hDR5-01-G56T-E430G (antibody, V domains shown)
VH: EVQLQQSGAEVVKPGASVKLSCKASGFNIKDTFIHWVKQAPGQGLEWIGRIDPANTNTKYDPKFQGKATITTDTSSNTAYMELSSLRSEDTAVYYCVRGLYTYYFDYWGQGTLVTVSS
VL: EIVMTQSPATLSVSPGERATLSCRASQSISNNLHWYQQKPGQAPRLLIKFASQSITGIPARFSGSGSGTEFTLTISSLQSEDFAVYYCQQGNSWPYTFGQGTKLEIKR
notes: also called first antibody; component of HexaBody-DR5/DR5
EC50 [1]: 0.27 µg/mL and 1.77 nM
